# In US20170307612:
# Experiments:
# [1] = test system: hemagglutinin of lowly pathogenic influenza virus H2N4
# [2] = test system: hemagglutinin of lowly pathogenic influenza virus H3N2 (Experimental Example 4)
# [3] = test system: hemagglutinin of lowly pathogenic influenza virus H9N2_01
# [4] = test system: hemagglutinin of lowly pathogenic influenza virus H7N9
# [5] = test system: hemagglutinin of highly pathogenic influenza virus H5N1_02
# [6] = test system: hemagglutinin of lowly pathogenic influenza virus H1N1_02
# [7] = test system: hemagglutinin of lowly pathogenic influenza virus H9N2 (Experimental Example 4)
# [8] = test system: hemagglutinin of lowly pathogenic influenza virus H9N2_02
# [9] = test system: hemagglutinin of lowly pathogenic influenza virus H1N1 (Experimental Example 4)
# [10] = test system: hemagglutinin of highly pathogenic influenza virus H5N6
# [11] = test system: hemagglutinin of lowly pathogenic influenza virus H7N7
# [12] = test system: hemagglutinin of lowly pathogenic influenza virus H3N8
# [13] = test system: hemagglutinin of highly pathogenic influenza virus H5N1_01
# [14] = test system: hemagglutinin of lowly pathogenic influenza virus H2N1
# [15] = test system: hemagglutinin of lowly pathogenic influenza virus H1N1_01
substance,measurement,setting,value
furin,"fluorescence intensity of probe of Preparation Example 1, furin only, pH 5.5",[1],426
same,"fluorescence intensity of probe of Preparation Example 2, furin only, pH 5.5",[1],347
same,"fluorescence intensity of probe of Preparation Example 3, furin only, pH 5.5",[1],477
same,"fluorescence intensity of probe of Example 4-1, furin only, pH 5.5",[2],"4,697"
same,"fluorescence intensity of probe of Example 4-2, furin only, pH 5.5",[2],"4,953"
same,"fluorescence intensity of probe of Example 4-3, furin only, pH 5.5",[2],"1,731"
same,"fluorescence intensity of probe of Preparation Example 1, furin only, pH 5.5",[3],353
same,"fluorescence intensity of probe of Preparation Example 2, furin only, pH 5.5",[3],443
same,"fluorescence intensity of probe of Preparation Example 3, furin only, pH 5.5",[3],461
same,"fluorescence intensity of probe of Preparation Example 1, furin only, pH 5.5",[4],545
same,"fluorescence intensity of probe of Preparation Example 2, furin only, pH 5.5",[4],461
same,"fluorescence intensity of probe of Preparation Example 3, furin only, pH 5.5",[4],528
same,"fluorescence intensity of probe of Preparation Example 1, furin only, pH 5.5",[5],2130
same,"fluorescence intensity of probe of Preparation Example 2, furin only, pH 5.5",[5],4840
same,"fluorescence intensity of probe of Preparation Example 3, furin only, pH 5.5",[5],5000
same,"fluorescence intensity of probe of Preparation Example 1, furin only, pH 5.5",[6],594
same,"fluorescence intensity of probe of Preparation Example 2, furin only, pH 5.5",[6],364
same,"fluorescence intensity of probe of Preparation Example 3, furin only, pH 5.5",[6],490
same,"fluorescence intensity of probe of Example 4-1, furin only, pH 5.5",[7],"3,134"
same,"fluorescence intensity of probe of Example 4-2, furin only, pH 5.5",[7],"3,703"
same,"fluorescence intensity of probe of Example 4-3, furin only, pH 5.5",[7],"4,218"
same,"fluorescence intensity of probe of Preparation Example 1, furin only, pH 5.5",[8],418
same,"fluorescence intensity of probe of Preparation Example 2, furin only, pH 5.5",[8],571
same,"fluorescence intensity of probe of Preparation Example 3, furin only, pH 5.5",[8],306
same,"fluorescence intensity of probe of Example 4-1, furin only, pH 5.5",[9],"3,721"
same,"fluorescence intensity of probe of Example 4-2, furin only, pH 5.5",[9],"3,955"
same,"fluorescence intensity of probe of Example 4-3, furin only, pH 5.5",[9],"4,344"
same,"fluorescence intensity of probe of Preparation Example 1, furin only, pH 5.5",[10],2420
same,"fluorescence intensity of probe of Preparation Example 2, furin only, pH 5.5",[10],2720
same,"fluorescence intensity of probe of Preparation Example 3, furin only, pH 5.5",[10],2250
same,"fluorescence intensity of probe of Preparation Example 1, furin only, pH 5.5",[11],432
same,"fluorescence intensity of probe of Preparation Example 2, furin only, pH 5.5",[11],401
same,"fluorescence intensity of probe of Preparation Example 3, furin only, pH 5.5",[11],575
same,"fluorescence intensity of probe of Preparation Example 1, furin only, pH 5.5",[12],399
same,"fluorescence intensity of probe of Preparation Example 2, furin only, pH 5.5",[12],442
same,"fluorescence intensity of probe of Preparation Example 3, furin only, pH 5.5",[12],313
same,"fluorescence intensity of probe of Preparation Example 1, furin only, pH 5.5",[13],2840
same,"fluorescence intensity of probe of Preparation Example 2, furin only, pH 5.5",[13],4680
same,"fluorescence intensity of probe of Preparation Example 3, furin only, pH 5.5",[13],4330
same,"fluorescence intensity of probe of Preparation Example 1, furin only, pH 5.5",[14],371
same,"fluorescence intensity of probe of Preparation Example 2, furin only, pH 5.5",[14],333
same,"fluorescence intensity of probe of Preparation Example 3, furin only, pH 5.5",[14],569
same,"fluorescence intensity of probe of Preparation Example 1, furin only, pH 5.5",[15],492
same,"fluorescence intensity of probe of Preparation Example 2, furin only, pH 5.5",[15],374
same,"fluorescence intensity of probe of Preparation Example 3, furin only, pH 5.5",[15],327
trypsin,"fluorescence intensity of probe of Preparation Example 1, trypsin only, pH 5.5",[1],4020
same,"fluorescence intensity of probe of Preparation Example 2, trypsin only, pH 5.5",[1],3090
same,"fluorescence intensity of probe of Preparation Example 3, trypsin only, pH 5.5",[1],3460
same,"fluorescence intensity of probe of Example 4-1, trypsin only, pH 5.5",[2],"19,192"
same,"fluorescence intensity of probe of Example 4-2, trypsin only, pH 5.5",[2],"16,812"
same,"fluorescence intensity of probe of Example 4-3, trypsin only, pH 5.5",[2],"16,362"
same,"fluorescence intensity of probe of Preparation Example 1, trypsin only, pH 5.5",[3],3750
same,"fluorescence intensity of probe of Preparation Example 2, trypsin only, pH 5.5",[3],4580
same,"fluorescence intensity of probe of Preparation Example 3, trypsin only, pH 5.5",[3],3510
same,"fluorescence intensity of probe of Preparation Example 1, trypsin only, pH 5.5",[4],3990
same,"fluorescence intensity of probe of Preparation Example 2, trypsin only, pH 5.5",[4],4600
same,"fluorescence intensity of probe of Preparation Example 3, trypsin only, pH 5.5",[4],3250
same,"fluorescence intensity of probe of Preparation Example 1, trypsin only, pH 5.5",[5],2960
same,"fluorescence intensity of probe of Preparation Example 2, trypsin only, pH 5.5",[5],4540
same,"fluorescence intensity of probe of Preparation Example 3, trypsin only, pH 5.5",[5],4360
same,"fluorescence intensity of probe of Preparation Example 1, trypsin only, pH 5.5",[6],4550
same,"fluorescence intensity of probe of Preparation Example 2, trypsin only, pH 5.5",[6],4720
same,"fluorescence intensity of probe of Preparation Example 3, trypsin only, pH 5.5",[6],3150
same,"fluorescence intensity of probe of Example 4-1, trypsin only, pH 5.5",[7],"18,345"
same,"fluorescence intensity of probe of Example 4-2, trypsin only, pH 5.5",[7],"18,950"
same,"fluorescence intensity of probe of Example 4-3, trypsin only, pH 5.5",[7],"18,035"
same,"fluorescence intensity of probe of Preparation Example 1, trypsin only, pH 5.5",[8],3280
same,"fluorescence intensity of probe of Preparation Example 2, trypsin only, pH 5.5",[8],4720
same,"fluorescence intensity of probe of Preparation Example 3, trypsin only, pH 5.5",[8],3730
same,"fluorescence intensity of probe of Example 4-1, trypsin only, pH 5.5",[9],"17,689"
same,"fluorescence intensity of probe of Example 4-2, trypsin only, pH 5.5",[9],"17,581"
same,"fluorescence intensity of probe of Example 4-3, trypsin only, pH 5.5",[9],"15,674"
same,"fluorescence intensity of probe of Preparation Example 1, trypsin only, pH 5.5",[10],2740
same,"fluorescence intensity of probe of Preparation Example 2, trypsin only, pH 5.5",[10],2760
same,"fluorescence intensity of probe of Preparation Example 3, trypsin only, pH 5.5",[10],2030
same,"fluorescence intensity of probe of Preparation Example 1, trypsin only, pH 5.5",[11],2600
same,"fluorescence intensity of probe of Preparation Example 2, trypsin only, pH 5.5",[11],2070
same,"fluorescence intensity of probe of Preparation Example 3, trypsin only, pH 5.5",[11],2510
same,"fluorescence intensity of probe of Preparation Example 1, trypsin only, pH 5.5",[12],3600
same,"fluorescence intensity of probe of Preparation Example 2, trypsin only, pH 5.5",[12],4070
same,"fluorescence intensity of probe of Preparation Example 3, trypsin only, pH 5.5",[12],3400
same,"fluorescence intensity of probe of Preparation Example 1, trypsin only, pH 5.5",[13],2950
same,"fluorescence intensity of probe of Preparation Example 2, trypsin only, pH 5.5",[13],4000
same,"fluorescence intensity of probe of Preparation Example 3, trypsin only, pH 5.5",[13],3410
same,"fluorescence intensity of probe of Preparation Example 1, trypsin only, pH 5.5",[14],2210
same,"fluorescence intensity of probe of Preparation Example 2, trypsin only, pH 5.5",[14],2120
same,"fluorescence intensity of probe of Preparation Example 3, trypsin only, pH 5.5",[14],2060
same,"fluorescence intensity of probe of Preparation Example 1, trypsin only, pH 5.5",[15],3350
same,"fluorescence intensity of probe of Preparation Example 2, trypsin only, pH 5.5",[15],4020
same,"fluorescence intensity of probe of Preparation Example 3, trypsin only, pH 5.5",[15],3720
